In assay [1] the target is human dimeric IL-23 (eBiosciences 34-8239) (human) (UniProt P29460).
Assay [2] has as its target human IL-6 (human) (UniProt P05231).
The target is the same in assay [3]. Briefly: cell-based or functional assay.
For assay [4], the target named is 3×FLAG-IL-6 (human). Briefly: SPR, 3×FLAG-IL-6 captured by anti-FLAG M2 on protein G, scFv-PEG as analyte; material refolded by rapid dilution from SDS; refolded by rapid dilution from SDS.
Assay [5] addresses 3×FLAG-IL-6 (human). Briefly: SPR, 3×FLAG-IL-6 captured by anti-FLAG M2 on protein G, scFv-PEG as analyte; material refolded by dialysis from urea.
The target of assay [6] is 3×FLAG-IL-6 (human). Nature of the assay: SPR, 3×FLAG-IL-6 captured by anti-FLAG M2 on protein G, scFv-PEG as analyte; material refolded by dialysis from urea; refolded by dialysis from urea. Background: In SPR one partner is held on a chip, and binding of the other changes the refractive index at the surface.

3×FLAG-IL-6 (human), sequence (chain, as listed by the source limits assumed): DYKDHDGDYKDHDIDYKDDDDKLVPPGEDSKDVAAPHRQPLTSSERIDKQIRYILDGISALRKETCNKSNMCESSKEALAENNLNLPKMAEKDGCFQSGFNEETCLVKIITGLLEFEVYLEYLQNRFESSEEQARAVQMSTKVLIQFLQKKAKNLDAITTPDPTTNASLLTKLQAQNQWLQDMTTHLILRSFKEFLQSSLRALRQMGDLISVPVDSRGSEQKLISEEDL
human IL-6 (human), sequence (P05231 30-212 limits assumed): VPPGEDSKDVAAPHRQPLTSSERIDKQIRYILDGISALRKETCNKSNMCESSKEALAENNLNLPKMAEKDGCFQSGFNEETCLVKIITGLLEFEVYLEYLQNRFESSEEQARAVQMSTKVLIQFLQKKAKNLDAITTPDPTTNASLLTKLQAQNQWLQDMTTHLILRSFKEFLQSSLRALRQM
human dimeric IL-23 (eBiosciences 34-8239) (human), sequence (P29460 23-328 limits assumed, chain 1 of 2): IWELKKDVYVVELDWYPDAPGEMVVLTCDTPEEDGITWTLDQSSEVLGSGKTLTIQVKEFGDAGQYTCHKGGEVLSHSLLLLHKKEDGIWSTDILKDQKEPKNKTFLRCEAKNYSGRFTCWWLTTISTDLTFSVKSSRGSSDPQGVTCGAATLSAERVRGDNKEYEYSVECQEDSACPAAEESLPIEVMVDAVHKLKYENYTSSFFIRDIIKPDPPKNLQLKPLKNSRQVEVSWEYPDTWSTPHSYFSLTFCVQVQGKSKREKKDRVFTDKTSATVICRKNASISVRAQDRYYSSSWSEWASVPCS
human dimeric IL-23 (eBiosciences 34-8239) (human), sequence (Q9NPF7 20-189 limits assumed, chain 2 of 2, further chain): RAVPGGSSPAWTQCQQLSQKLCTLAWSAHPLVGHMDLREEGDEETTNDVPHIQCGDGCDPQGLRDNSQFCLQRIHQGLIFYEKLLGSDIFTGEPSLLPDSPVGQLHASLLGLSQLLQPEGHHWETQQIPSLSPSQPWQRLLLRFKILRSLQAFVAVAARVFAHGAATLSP

B1: 45G5 humanized scFv (mammalian expressed) (scFv)
scFv: DIQLTQSPSFLSASVGDRVTITCQSSQSIYNNNLLSWYQQKPGKAPKLLIYFASTLASGVPSRFSGSGSGTEFTLTISSLQPEDFATYYCLGGYDDDADTAFGGGTKVEIKGGGGSGGGGSGGGGSGGGGSEVQLVESGGGLVQPGGSLRLSCTVSGFSLSVYPINWVRQAPGKGLEWVGIINDVDDTAYSAWAKGRFTISRDNSKNTLYLQMNSLRAEDTAVYYCARGYLSYAYAGDAFDPWGQGTLVTVSSGPPPPHHHHHH
Regarding B1, the IC50 (read off the curve) (IL-17 from mouse splenocytes, OD450) in assay [1] amounted to 0.4 ng/mL.

B2: 28D2 N-Aha (scFv)
scFv: MEDIQLTQSPSFLSASVGDRVTITCQASEDLFSSLAWYQQKPGKAPKLLIYSASTLASGVPSRFSGSGSGTDFTLTISSLQPEDFATYYCLGLYYYLTPDPIYGFGGGTKVEIKGGGGSGGGGSGGGGSGGGGSEVQLVESGGGLVQPGGSLRLSCTVSGLSLSKNAIAWVRQAPGKGLEWVGIIYAGGATTYASWAKGRFTISRDNSKNTLYLQLNSLRAEDTAVYYCAREYAGDSYYTGYTQLDLWGQGTLVTVSSGPPPPPHHHHHH
modifications: azidohomoalanine (Aha) in place of the single Met, at the N terminus
Take B2: the IC50 (read off the curve) (B9 proliferation, OD570-600) with human IL-6 (human) [2] worked out at 0.03 ng/mL.

B3: 28D2-L Aha (scFv)
scFv: MADIQLTQSPSFLSASVGDRVTITCQASEDLFSSLAWYQQKPGKAPKLLIYSASTLASGVPSRFSGSGSGTDFTLTISSLQPEDFATYYCLGLYYYLTPDPIYGFGGGTKVEIKGGGGSGMGGSGGGGSGGGGSEVQLVESGGGLVQPGGSLRLSCTVSGLSLSKNAIAWVRQAPGKGLEWVGIIYAGGATTYASWAKGRFTISRDNSKNTLYLQLNSLRAEDTAVYYCAREYAGDSYYTGYTQLDLWGQGTLVTVSSGPPPPPHHHHHH
modifications: azidohomoalanine (Aha) in place of a single Met in the Gly/Ser linker between VL and VH
B3 returned an IC50 (read off the curve) (B9 proliferation, OD570-600) with human IL-6 (human) [2] of 0.03 ng/mL.

B4: 28D2c-PEG (scFv)
scFv: MAHHHHHHPPPPAAADIQLTQSPSFLSASVGDRVTITCQASEDLFSSLAWYQQKPGKAPKLLIYSASTLASGVPSRFSGSGSGTDFTLTISSLQPEDFATYYCLGLYYYLTPDPIYGFGGGTKVEIKGGGGSGGGGSGGGGSGGGGSEVQLVESGGGLVQPGGSLRLSCTVSGLSLSKNAIAWVRQAPGKGLEWVGIIYAGGATTYASWAKGRFTISRDNSKNTLYLQLNSLRAEDTAVYYCAREYAGDSYYTGYTQLDLWGQGTLVTVSSGM
modifications: C-terminal azidohomoalanine (Aha) conjugated to 30 kDa linear PEG alkyne
Take B4: in the assay with human IL-6 (human) [3], the EC50, IL-6 neutralization; folded by dialysis from urea is 0.116 ng/mL; the EC50 of the product; folded by rapid dilution from SDS amounted to 0.256 ng/mL; the EC50 of the product; folded by rapid dilution from urea worked out at 0.138 ng/mL; the EC50 of the product; folded from guanidine turned out to be 0.15 ng/mL. In the assay with 3×FLAG-IL-6 (human) [4], this molecule gave a Kd of 0.319 nM, a koff of 0.000104 s⁻¹ and a kon of 326000 M⁻¹ s⁻¹. In the assay with 3×FLAG-IL-6 (human) [5], the Kd is 0.193 nM and the koff came out at 9.78e-05 s⁻¹. Moreover, in the assay with 3×FLAG-IL-6 (human) [6], the kon worked out at 507000 M⁻¹ s⁻¹.

B5: 28D2-C Aha (scFv)
scFv: MAHHHHHHPPPPAAADIQLTQSPSFLSASVGDRVTITCQASEDLFSSLAWYQQKPGKAPKLLIYSASTLASGVPSRFSGSGSGTDFTLTISSLQPEDFATYYCLGLYYYLTPDPIYGFGGGTKVEIKGGGGSGGGGSGGGGSGGGGSEVQLVESGGGLVQPGGSLRLSCTVSGLSLSKNAIAWVRQAPGKGLEWVGIIYAGGATTYASWAKGRFTISRDNSKNTLYLQLNSLRAEDTAVYYCAREYAGDSYYTGYTQLDLWGQGTLVTVSSGM
modifications: azidohomoalanine (Aha) in place of the single Met, at the C terminus
B5 returned an IC50 (read off the curve) (B9 proliferation, OD570-600) with human IL-6 (human) [2] of 0.03 ng/mL.

One may read the Kd as the equilibrium constant for the complex coming apart. Low values mean a tighter complex, high ones a looser complex. In general, koff refers to the rate constant with which the complex falls apart. A lower koff goes with a long-lived complex. As usually defined, the kon is the second-order rate constant of association.

Source of the values: patent publication US20160194391A1.
